The test deals with human CLDN18.2 expressed on cells (human). The test is described as follows: cell-based or functional assay.

Human IgG1 isotype antibody: the ADCC on KATOIII CLDN18.2 cells, LDH: max (% cytotoxity) (run A) was found to be 0.3%; the ADCC on KATOIII CLDN18.2 cells, LDH: max (% cytotoxity) (run B) is -5.51%; the ADCC on KATOIII CLDN18.2 cells, LDH: max (% cytotoxity) (run C) is -7.64%; the ADCC on NCI-N87 CLDN18.2 cells, LDH: max (% cytotoxity) (run A) is -6.73%. In addition, the ADCC on NCI-N87 CLDN18.2 cells, LDH: max (% cytotoxity) (run B) was -11.7%; the ADCC on NCI-N87 CLDN18.2 cells, LDH: max (% cytotoxity) (run C) is -9.22%; the ADCC, FACS: Max (%) is 8.3%; the ADCC, LDH: Max (%) was found to be 1.5%. Moreover, the CDC on CT26 CLDN18.2 cells, LDH: max (% cytotoxity) (run A) was found to be 10.8%; the CDC on CT26 CLDN18.2 cells, LDH: max (% cytotoxity) (run B) is -0.23%; the CDC on CT26 CLDN18.2 cells, LDH: max (% cytotoxity) (run C) is -0.38%; the CDC on KATOIII CLDN18.2 cells, LDH: max (% cytotoxity) (run A) is -0.85%. In addition, the CDC on KATOIII CLDN18.2 cells, LDH: max (% cytotoxity) (run B) was -2.46% and the CDC on KATOIII CLDN18.2 cells, LDH: max (% cytotoxity) (run C) is -1.53%.

(Values after US20250263481A1.)
